Target: α-synuclein (human, UniProt P37840 1-140)
Assay: immunofluorescence microscopy, co-localisation in SK-MEL13 cells
Experimental: For immunofluorescence imaging, cells were first seeded onto 16 mm diameter circular sterile coverslips in 12-well culture plates and left to adhere overnight. All coverslips were sterilised with 100% (v/v) ethanol prior to use and allowed to dry. Cells were washed twice in PBS before being fixed in 4% (w/v) paraformaldehyde (diluted in PBS) at room temperature for 10 minutes. PFA was removed and the coverslips were washed twice in PBS. Coverslips were then permeabilised with 0.2% (v/v) NP40 in PBS for 3 min. Cells were then blocked by washing twice and a 15-minute incubation in 1% (w/v) BSA/PBS. Coverslips were then incubated for 1.5 hr at room temperature with a 1:100 dilution of anti-α-synuclein antibody (610786, BD Biosciences) in a humidified chamber. They were then washed 3 times (for 10 minutes each) in 0.2% (w/v) BSA/PBS before being incubated with goat anti-mouse-IgG alexa-fluor 594 conjugated secondary antibody (A-11005, Thermo Fisher Scientific) at a dilution of 1:500 for 1 hour at 37° C., protected from light. Coverslips were then washed three times in 0.2% (w/v) BSA/PBS for 10 minutes each with the first wash containing a 1:15,000 dilution of DAPI. […]
The interaction of NbSyn87 and alpha-synuclein was determined in extracts and cells, with alpha-synuclein knockout cells included as controls for a clean alpha-synuclein IP. […]

B1: GFP-NbSYN87 (VHH)
VHH: QVQLQESGGGSVQTGGSLRLSCVASGYSGYMAWFRQAPGKEREGIAAIYRGDKITYYAHSVQGRFTISQANAKNTVYLLMNSLKPEDTAIYYCAARRVVADSPLLSKTYAYWGQGTQVTVSS
notes: Transiently transfected into SK-MEL13 cells; also called GFP-tagged NbSyn87; not shown: GFP tag
- binding result: binds

Source: patent US20250059527A1 (UNIVERSITY OF DUNDEE, published 2025)
